The source of these data is patent publication US20230132049A1 (Genmab, published 2023).

Like-named read-outs stand apart in the source and are kept apart here.

Test [1] concerns the target T1, human CD30 (human, UniProt P28908 19-595).
T1 construct: Endogenous on HL, ALCL and NHL tumor cell lines, or full-length huCD30 (Uniprot P28908) transiently expressed in Expi293F or HEK293 cells; also called huCD30; TNFRSF8
T1 sequence: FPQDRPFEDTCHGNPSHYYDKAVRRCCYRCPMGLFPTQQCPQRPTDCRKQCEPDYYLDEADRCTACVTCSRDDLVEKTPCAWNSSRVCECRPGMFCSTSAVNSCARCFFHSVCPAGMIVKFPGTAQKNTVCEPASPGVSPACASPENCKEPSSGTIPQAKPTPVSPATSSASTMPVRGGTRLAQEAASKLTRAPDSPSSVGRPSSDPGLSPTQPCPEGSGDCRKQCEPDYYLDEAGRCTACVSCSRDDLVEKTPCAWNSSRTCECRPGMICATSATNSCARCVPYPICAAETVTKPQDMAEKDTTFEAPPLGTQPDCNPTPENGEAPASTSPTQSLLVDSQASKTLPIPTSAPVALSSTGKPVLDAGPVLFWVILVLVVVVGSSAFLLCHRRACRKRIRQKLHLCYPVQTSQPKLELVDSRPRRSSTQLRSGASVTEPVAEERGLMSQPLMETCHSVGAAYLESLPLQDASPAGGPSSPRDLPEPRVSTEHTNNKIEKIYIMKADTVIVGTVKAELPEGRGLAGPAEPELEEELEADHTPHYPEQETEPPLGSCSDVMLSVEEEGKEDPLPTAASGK
Briefly: flow cytometry on DEL cells. In general terms: Flow cytometry measures light scatter and fluorescence of single cells or particles in a stream.

The target in test [2] is T1, human CD30. The test is described as follows: flow cytometry on NCEB-1 cells. How it is done:
(§1) Cells (3×10⁴ cells/well) were incubated in polystyrene 96-well round-bottom plates (Greiner bio-one, cat. no. 650180) with serial dilutions of antibodies (range 0.0046 to 10 μg/mL in 3-fold dilution steps) in 50 μL staining buffer at 4° C. for 30 min. After washing twice in staining buffer, cells were incubated with 50 μL secondary antibody at 4° C. for 30 min. […] Next, cells were washed twice in staining buffer, resuspended in 100 μL staining buffer supplemented with TO-PRO-3 iodide (Thermo Fisher Scientific; cat. no. T3605; 1:8000 dilution) and analyzed on a FACSCelesta flow cytometer (BD Biosciences, USA). Live cells were gated based on FSC/SSC and absence of TOPRO-3 staining. Binding curves were analyzed by non-linear regression of log-transformed data (sigmoidal dose-response with variable slope, four parameters) using GraphPad Prism V7.02 software (GraphPad Software, San Diego, Calif., USA).

Test [3] concerns the target T1, human CD30. Briefly: cell-based or functional assay.
Test [4] concerns the target T2, rhesus monkey (Macaca mulatta) CD30 (rhesus monkey, UniProt P28908 19-595 (human entry)).
T2 construct: Full-length construct expressed in Expi293F cells; also called mmCD30
T2 chain: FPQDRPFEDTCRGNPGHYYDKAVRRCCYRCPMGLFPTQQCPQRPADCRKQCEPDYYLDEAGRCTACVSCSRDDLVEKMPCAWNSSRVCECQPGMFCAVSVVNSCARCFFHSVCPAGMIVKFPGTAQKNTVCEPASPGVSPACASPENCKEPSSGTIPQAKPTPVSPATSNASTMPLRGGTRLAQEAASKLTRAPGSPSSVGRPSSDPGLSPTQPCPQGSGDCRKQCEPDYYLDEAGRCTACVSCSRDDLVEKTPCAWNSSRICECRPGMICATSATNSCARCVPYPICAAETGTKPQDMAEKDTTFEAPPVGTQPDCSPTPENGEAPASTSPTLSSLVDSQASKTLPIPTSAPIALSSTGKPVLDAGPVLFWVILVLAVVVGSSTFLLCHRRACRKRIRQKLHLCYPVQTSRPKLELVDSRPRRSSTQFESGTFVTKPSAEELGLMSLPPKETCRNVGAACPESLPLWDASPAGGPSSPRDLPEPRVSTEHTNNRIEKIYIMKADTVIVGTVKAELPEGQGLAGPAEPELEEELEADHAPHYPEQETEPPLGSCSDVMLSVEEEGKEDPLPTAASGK
The test is described as follows: flow cytometry on Expi293F cells transfected with rhesus monkey CD30.

The target in test [5] is T1, human CD30. The test is described as follows: flow cytometry on SU-DHL-1 cells. How it is done: Binding of CD3×CD30 bispecific antibodies to two CD30-expressing human tumor cell lines SU-DHL-1 (ALCL; ATCC, cat. no. ACC 356) and HDLM-2 (HL; ATCC, cat. no. CRL-2965) was analyzed by flow cytometry.
as §1

The target of test [6] is T2, rhesus monkey (Macaca mulatta) CD30. The test is described as follows: flow cytometry on Expi293F cells transfected with rhesus monkey CD30.
The target is the same in test [7]. Described as above.
The target of test [8] is T1, human CD30. Briefly: flow cytometry on Expi293F cells transfected with human CD30. How it is done: Cells (3×10⁴ cells/well) were incubated in polystyrene 96-well round-bottom plates (Thermo Scientific, cat. no. 163320) with serial dilutions of antibodies (ranging from 0.0002 to 50 μg/mL in 4-fold dilution steps) in 50 μL staining buffer at 4° C. for 30 min. Experiments were performed in technical duplicate. After washing twice in staining buffer, cells were incubated in 50 μL secondary antibody at 4° C. for 30 min. […] Cells were washed twice in staining buffer, resuspended in 30 μL staining buffer containing 0.4% EDTA and the ToPro-3 viability marker (Invitrogen, cat. no. T3605) diluted 1:10,000. Cells were analyzed on an iQue Screener (Intellicyt Corporation, USA). Binding curves were analyzed using non-linear regression (sigmoidal dose-response with variable slope) using GraphPad Prism V9.0.0 software (GraphPad Software, San Diego, Calif., USA).

In test [9] the target is T2, rhesus monkey (Macaca mulatta) CD30. Briefly: flow cytometry on Expi293F cells transfected with rhesus monkey CD30.

B1: IgG1-CD30-MDX060-FERR (antibody)
heavy: QVQLQQWGAGLLKPSETLSLTCAVYGGSFSAYYWSWIRQPPGKGLEWIGDINHGGGTNYNPSLKSRVTISVDTSKNQFSLKLNSVTAADTAVYYCASLTAYWGQGSLVTVSSASTKGPSVFPLAPSSKSTSGGTAALGCLVKDYFPEPVTVSWNSGALTSGVHTFPAVLQSSGLYSLSSVVTVPSSSLGTQTYICNVNHKPSNTKVDKRVEPKSCDKTHTCPPCPAPEFERGPSVFLFPPKPKDTLMISRTPEVTCVVVDVSHEDPEVKFNWYVDGVEVHNAKTKPREEQYNSTYRVVSVLTVLHQDWLNGKEYKCKVSNKALPAPIEKTISKAKGQPREPQVYTLPPSREEMTKNQVSLTCLVKGFYPSDIAVEWESNGQPENNYKTTPPVLDSDGSFFLYSRLTVDKSRWQQGNVFSCSVMHEALHNHYTQKSLSLSPG
light: DIQMTQSPTSLSASVGDRVTITCRASQGISSWLTWYQQKPEKAPKSLIYAASSLQSGVPSRFSGSGSGTDFTLTISSLQPEDFATYYCQQYDSYPITFGQGTRLEIKRTVAAPSVFIFPPSDEQLKSGTASVVCLLNNFYPREAKVQWKVDNALQSGNSQESVTEQDSKDSTYSLSSTLTLSKADYEKHKVYACEVTHQGLSSPVTKSFNRGEC
notes: Monospecific, bivalent parental antibody; also called IgG1-huCD30-MDX060-FERR
B1: the half-maximal effective concentration (EC50 (read off the curve)) with human CD30 [1] was around 0.09 µg/mL; with human CD30 [2] it was around 0.05 µg/mL.

B2: bsG1-huCD3-FEAL×CD30-T405-FEAR (bispecific antibody, human IgG1, kappa, lambda)
heavy 1: not shown
light 1: not shown
heavy 2: QVQLQQIGAELVRPGASVKLSCKASGYTFNNYWINWVKQRPGQGLEWIGNIYPSDSRSNYNQKFKDKATLTVDKPSSTAYMQLSSPTSEDSAVYYCTLGSYWGQGTLVTVSAASTKGPSVFPLAPSSKSTSGGTAALGCLVKDYFPEPVTVSWNSGALTSGVHTFPAVLQSSGLYSLSSVVTVPSSSLGTQTYICNVNHKPSNTKVDKRVEPKSCDKTHTCPPCPAPEFEGGPSVFLFPPKPKDTLMISRTPEVTCVVVAVSHEDPEVKFNWYVDGVEVHNAKTKPREEQYNSTYRVVSVLTVLHQDWLNGKEYKCKVSNKALPAPIEKTISKAKGQPREPQVYTLPPSREEMTKNQVSLTCLVKGFYPSDIAVEWESNGQPENNYKTTPPVLDSDGSFFLYSRLTVDKSRWQQGNVFSCSVMHEALHNHYTQKSLSLSPG
light 2: DVVMTQTPLTLSVTIGQPASISCKSSQSLSDSDGKTYLNWLLQRPGQSPKRLIYLVSKLDSGVPDRFTGSGSGTDFTLKISRVEAEDLGVYYCWQGAHFPRTFGGGTKLEIKRTVAAPSVFIFPPSDEQLKSGTASVVCLLNNFYPREAKVQWKVDNALQSGNSQESVTEQDSKDSTYSLSSTLTLSKADYEKHKVYACEVTHQGLSSPVTKSFNRGEC
notes: Bispecific IgG1 by Fab-arm exchange of the two parental antibodies; also called bsIgG1-huCD3-FEAL×CD30-T405-FEAR
As for B2, in the test with human CD30 [3], the “cytotoxicity IC50 (µg/mL) average, Karpas-299 cells” value came to 0.078 µg/mL and the “cytotoxicity maximum lysis (%) average, Karpas-299 cells” value is 41.7%. In [4], the binding result is “binds”.

B3: IgG1-CD30-T408-FEAR (antibody, V domains shown)
VH: QVQLQQPGAELVRPGASVKLSCKASGYTFTSYWINWVKQRPGQGLEWIGNIYPSDSYSNYNQKFKDKATLTVDKSSSTAYMQLSSPTSEDSAVYYCTLGSYWGQGTLVTVSA
VL: not shown
notes: Monospecific, bivalent parental antibody
Consider B3, for which the concentration for a half-maximal effect (EC50 (read off the curve)) with human CD30 [5] is around 0.7 µg/mL.

B4: bsG1-huCD3-FEAL×CD30-HeFi-I-FEAR (bispecific antibody, human IgG1, kappa, lambda)
heavy 1: not shown
light 1: not shown
heavy 2: EVKLVESGGGLVQPGGSLRLSCATSGFTFSDYYMNWVRQPPGKALEWLGFIRNKANGYTTEFSASVMGRFTISRDDSQSILYLQMNTLRAEDSATYYCARDPPYGNPHYYAMDYWGQGTSVTVSSASTKGPSVFPLAPSSKSTSGGTAALGCLVKDYFPEPVTVSWNSGALTSGVHTFPAVLQSSGLYSLSSVVTVPSSSLGTQTYICNVNHKPSNTKVDKRVEPKSCDKTHTCPPCPAPEFEGGPSVFLFPPKPKDTLMISRTPEVTCVVVAVSHEDPEVKFNWYVDGVEVHNAKTKPREEQYNSTYRVVSVLTVLHQDWLNGKEYKCKVSNKALPAPIEKTISKAKGQPREPQVYTLPPSREEMTKNQVSLTCLVKGFYPSDIAVEWESNGQPENNYKTTPPVLDSDGSFFLYSRLTVDKSRWQQGNVFSCSVMHEALHNHYTQKSLSLSPG
light 2: not shown
notes: Bispecific IgG1 by Fab-arm exchange of the two parental antibodies; also called BsIgG1-huCD3-FEAL×CD30-HeFi-I-FEAR
For B4, in the test with human CD30 [3], the “cytotoxicity IC50 (µg/mL) average, Karpas-299 cells” value is 0.052 µg/mL and the “cytotoxicity maximum lysis (%) average, Karpas-299 cells” value was found to be 43%. Besides, the binding result in test [6] was “no binding (tested: 10 µg/mL)”.

B5: IgG1-CD30-hAC10-FEAR (antibody, V domains shown)
VH: QVQLVQSGAEVKKPGASVKVSCKASGYTFTDYYITWVRQAPGQGLEWMGWIYPGSGNTKYNEKFKGRVTMTRDTSISTAYMELSRLRSDDTAVYYCANYGNYWFAYWGQGTLVTVSS
VL: DIVMTQSPDSLAVSLGERATINCKASQSVDFDGDSYMNWYQQKPGQPPKLLIYAASNLESGVPDRFSGSGSGTDFTLTISSLQAEDVAVYYCQQSNEDPWTFGQGTKVEIKR
notes: as for B3
For B5, in the test with human CD30 [5], the “EC50 (read off the curve)” value is around 0.05 µg/mL. In addition, the binding result in [7] is “binds”.

B6: IgG1-CD30-HRS-3-FEAR (antibody, V domains shown)
VH: QVQLQQSGAELARPGASVKMSCKASGYTFTTYTIHWVRQRPGHDLEWIGYINPSSGYSDYNQNFKGKTTLTADKSSNTAYMQLNSLTSEDSAVYYCARRADYGNYEYTWFAYWGQGTTVTVSS
VL: DIVMTQSPKFMSTSVGDRVTVTCKASQNVGTNVAWFQQKPGQSPKVLIYSASYRYSGVPDRFTGSGSGTDFTLTISNVQSEDLAEYFCQQYHTYPLTFGGGTKLEINR
notes: as for B3
Regarding B6, the “EC50 (read off the curve)” value is around 0.06 µg/mL with human CD30 [8] and around 0.1 µg/mL in test [9].

B7: IgG1-CD30-HeFi-I-FEAR (antibody, V domains shown)
VH: EVKLVESGGGLVQPGGSLRLSCATSGFTFSDYYMNWVRQPPGKALEWLGFIRNKANGYTTEFSASVMGRFTISRDDSQSILYLQMNTLRAEDSATYYCARDPPYGNPHYYAMDYWGQGTSVTVSS
VL: DIVLTQSPASLAVSLGQRATISCRASKSVSASGYNYMHWYQQKAGQPPKLLIHLASNLESGVPARFSGSGSGTDFTLNIHPVEEEDASTYYCQHSGELPFTFGSGTKLEIKR
notes: as for B3
For the molecule B7, the binding result in test [6] is given as “no binding (tested: 10 µg/mL)”.

Usually EC50 (read off the curve) stands for the concentration that produces a half-maximal response.
